{"source": "patent US9011842", "tested_on": "T1, 33-mer peptide fragment of α-gliadin, LQLQPFPQPQLPYPQPQLPYPQPQLPYPQPQPF (SEQ ID NO:1)", "T1 sequence": "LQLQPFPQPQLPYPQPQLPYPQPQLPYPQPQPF"}
{"substance": "Aorsin A", "values": [{"measurement": "degradation of the 33-mer peptide (ELISA of intact 33-mer), 240 min, pH 4.0", "value": "Incubation with either Aorsin A or B for about 240 minutes resulted in complete degradation of the 33-mer peptide"}, {"measurement": "hydrolysis of the 33-mer peptide (HPLC-MS), citrate buffer pH 4.0", "value": "When incubated with the 33-mer peptide in acidic conditions (pH≈4.0), Aorsin A hydrolyzed the 33-mer"}]}
{"substance": "Aorsin B", "values": [{"measurement": "degradation of the 33-mer peptide (ELISA of intact 33-mer), 240 min, pH 4.0", "value": "Incubation with either Aorsin A or B for about 240 minutes resulted in complete degradation of the 33-mer peptide"}, {"measurement": "hydrolysis of the 33-mer peptide (HPLC-MS), citrate buffer pH 4.0", "value": "when incubated with the 33-mer peptide in acidic conditions (pH≈4.0), Aorsin B hydrolyzed the 33-mer"}]}
{"substance": "Aspergillus niger prolyl endopeptidase", "values": [{"measurement": "hydrolysis of the 33-mer peptide (HPLC-MS and ELISA), pH 5.0", "value": "CPY, MX-PEP, and AN-PEP hydrolyze the 33-mer peptide. AN-PEP appears to have the strongest activity against the 33-mer peptide, followed by CPY and then MX-PEP"}]}
{"substance": "Myxococcus xanthus prolyl endopeptidase", "values": [{"measurement": "hydrolysis of the 33-mer peptide (HPLC-MS and ELISA), SIF pH 6.8", "value": "CPY, MX-PEP, and AN-PEP hydrolyze the 33-mer peptide. AN-PEP appears to have the strongest activity against the 33-mer peptide, followed by CPY and then MX-PEP"}, {"measurement": "hydrolysis of the 33-mer peptide (HPLC-MS), 4 hours, buffer pH 4.0 to 7.0", "value": "MX-PEP did not hydrolyze the 33-mer peptide at an acidic pH"}]}
{"substance": "Neutral protease I", "values": [{"measurement": "degradation of the 33-mer peptide (ELISA of intact 33-mer), 0.1 mg/ml enzyme, SIF pH 6.8", "value": "NP I and NP II each exhibited a limited ability to degrade the 33-mer peptide"}, {"measurement": "percent of the 33-mer peptide degraded (ELISA), 60 min, SIF pH 6.8", "value": "NP I alone degraded about 40% of the 33-mer peptide"}]}
{"substance": "chymotrypsin", "values": [{"measurement": "digestion of the 33-mer peptide (HPLC-MS), in vitro gastrointestinal model, digestive enzymes only", "value": "The digestive enzymes only (pepsin, trypsin, and chymotrypsin) failed to digest the 33-mer peptide"}]}
{"substance": "pepsin", "values": [{"measurement": "digestion of the 33-mer peptide (HPLC-MS), in vitro gastrointestinal model, digestive enzymes only", "value": "The digestive enzymes only (pepsin, trypsin, and chymotrypsin) failed to digest the 33-mer peptide"}, {"measurement": "hydrolysis of the 33-mer peptide (HPLC-MS), 15 hours, SGF pH 2.0", "value": "At gastric conditions (pH≈2.0), pepsin did not hydrolyze most of the 33-mer peptide"}]}
{"substance": "trypsin", "values": [{"measurement": "digestion of the 33-mer peptide (HPLC-MS), in vitro gastrointestinal model, digestive enzymes only", "value": "The digestive enzymes only (pepsin, trypsin, and chymotrypsin) failed to digest the 33-mer peptide"}]}
